Literature values in publication PMC2884013.

Molecular target: Glu78 (UniProt position 78, RISTVEHLNAA)
Test: kinetics
Details: Zn2+-bound wild-type enzyme

Question: With “UDP-3-O-(R-3-hydroxymyristoyl)-N-acetylglucosamine deacetylase (LpxC, EcLpxC) (Escherichia coli)” as the substance, how does the pKa read?
Answer: 6.2 ± 0.2
